According to US20170233495:

B1: recombinant catalytic domain of human MMP12 (protein)
chain: GPVWRKHYITYRINNYTPDMNREDVDYAIRKAFQVWSNVTPLKFSKINTGMADILVVFARGAHGDFHAFDGKGGILAHAFGPGSGIGGDAHFDEDEFWTTHSGGTNLFLTAVHEIGHSLGLGHSSDPKAVMFPTYKYVDINTFRLSADDIRGIQSLYG
B2: recombinant catalytic domain of human MMP1 (protein)
chain: FVLTEGNPRWEQTHLTYRIENYTPDLPRADVDHAIEKAFQLWSNVTPLTFTKVSEGQADIMISFVRGDHRDNSPFDGPGGNLAHAFQPGPGIGGDAHFDEDERWTNNFREYNLHRVAAHELGHSLGLSHSTDIGALMYPSYTFSGDVQLAQDDIDGIQAIYGRSQNPVQP

Target: All antibodies according to the invention, which were tested (Example 4)

Protein | cleavage of fluorogenic peptide OmniMMP RED by MMP catalytic domain, antibody at 100 nM
B1 | had no significant effect on the catalytic activity of the eight other human MMPs tested
B2 | had no significant effect on the catalytic activity of the eight other human MMPs tested
